Laboratory results published in patent publication EP2908837B1 (Vect-Horus, dated 2014).

B1: peptide SEQ ID NO: 1, (D)-Cys-Met-Thz-Arg-Leu-Arg-Gly-Pen (peptide)
peptide: XMXRLRGX
modifications: (D)-Cys at 1, Thz (thiazolidine-4-carboxylic acid) at 3, Pen (penicillamine) at 8; cyclised by a disulfide bridge
B2: hLDLR fused to GFP, on CHO-hLDLR-GFP cells (receptor)
chain: not shown
notes: whole, on cells; also called CHO-LDLR-GFP; not shown: GFP fused in the C-term position

How the values were obtained:
[1] = target: mouse LDLR (in vivo, wild-type against LDLR -/- mice) (mouse, UniProt P35951 22-862); test: cell-based or functional assay
Chain of mouse LDLR (in vivo, wild-type against LDLR -/- mice) (P35951 22-862): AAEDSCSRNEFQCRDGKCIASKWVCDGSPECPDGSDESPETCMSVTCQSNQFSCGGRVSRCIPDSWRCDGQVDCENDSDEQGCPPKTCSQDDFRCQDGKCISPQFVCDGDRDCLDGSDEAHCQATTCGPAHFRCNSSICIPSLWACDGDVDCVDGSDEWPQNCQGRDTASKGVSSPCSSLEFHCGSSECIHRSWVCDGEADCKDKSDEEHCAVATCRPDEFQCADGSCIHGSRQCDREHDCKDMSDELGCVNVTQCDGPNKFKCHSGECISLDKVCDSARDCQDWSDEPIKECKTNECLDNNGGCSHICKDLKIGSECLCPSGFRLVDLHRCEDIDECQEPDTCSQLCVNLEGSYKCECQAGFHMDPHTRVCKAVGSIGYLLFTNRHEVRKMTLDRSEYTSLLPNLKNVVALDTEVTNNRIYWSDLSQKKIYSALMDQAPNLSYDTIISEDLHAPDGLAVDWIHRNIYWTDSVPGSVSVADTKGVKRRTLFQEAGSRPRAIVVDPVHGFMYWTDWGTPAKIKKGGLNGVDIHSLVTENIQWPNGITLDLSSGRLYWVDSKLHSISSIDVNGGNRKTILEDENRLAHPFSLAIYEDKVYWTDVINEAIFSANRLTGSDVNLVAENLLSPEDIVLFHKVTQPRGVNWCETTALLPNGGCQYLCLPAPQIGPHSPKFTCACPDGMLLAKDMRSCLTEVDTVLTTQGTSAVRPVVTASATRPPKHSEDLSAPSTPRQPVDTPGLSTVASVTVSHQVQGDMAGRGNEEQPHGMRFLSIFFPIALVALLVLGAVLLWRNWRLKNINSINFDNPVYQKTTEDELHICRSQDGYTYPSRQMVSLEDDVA

[2] = target: T1, Fc alone (human Fc fragment of an IgG1 antibody) (human, UniProt P01857-1 104-330 = IgG part, limits assumed); test: pulse-chase immunocytochemistry on CHO-hLDLR-GFP cells, anti-human Fc antibody Alexa 594
T1 construct: domain: Fc fragment; Negative control

Row | Binder | decrease in peptide concentration in the adrenal glands of LDLR-/- (KO) mice compared to wild-type mice, tritium-labelled peptide, 10 min after i.v. injection [1] | decrease in peptide concentration in the intestine of LDLR-/- (KO) mice compared to wild-type mice, tritium-labelled peptide, 10 min after i.v. injection [1] | decrease in peptide concentration in the liver of LDLR-/- (KO) mice compared to wild-type mice, tritium-labelled peptide, 10 min after i.v. injection [1] | binding result [2]
1 | B1 | ~3.4 fold | ~3.6 fold | ~4 fold | 
2 | B2 |  |  |  | no binding (tested: 5 nM)
